# Measurements reported in the DeepSol protein solubility set.
# Assay: soluble on expression in E. coli; label from the status in PepcDB or PDB records
row,Sequence,soluble on expression in E. coli
1,GCSDGGREALVAAQRYPDDFNGIIAGAPALNFQVQKTLYHGWMARSNIGPDGKPILLASRLPLLHKAVLAKCDVLDGQIDGLIADPRLCNFDPASVQCTSSVDTTNCLTQQEVAVVKRFYEGPKDPDSGERLTVGGPQPGSELGWAGVFVPITAEQTVYSEKAASEAIRNMVFENNPVAGFDLSTLRFDKSTFDKLRPLHPLYDATNPDLAPFASRGGKLILWHGWADPNVSPLNTLAYHEAVEAKLGKARTEAFESLYMLPGVYHCGAGEGPSVIDLLTPMMAWVESNHAPD,not soluble
2,MGSDKIHHHHHHMDLTQLRMFCLVAETGSVARAAEQLHRVPSNLTTRLRQLELELGTDLFIREKQRLRLSPIGHNFLCYAQRILALSEEAISMTRTGEPAGNFALGSMESTAATRLPTLLAAYHQRYPNVSLSLNTGTSGEIIERVRAGTLAAALVDGPVVYDELNGCSCFAEQLVLISDPSHSPITHARDASNDTLFAFRPSCSYRKRLENWFRQDGVVPGTIMEIHSYHAMLACVASGSGLAMLPYAVLESLPAGARVQVHELPPDIAAASTWLVWRRDAFGPNVEALKKLIIEQSAQSE,not soluble
3,MAHHHHHHMSEENNIRKGPSFVFHDIKKKRMREIILMCNKKKQKKMLLKSLNIKFIYEEKNKKRVKIHVDNFLPVSINSDMEIIKKYKEILYDDNYCNIYDINKLKIGKMKKILKDFFYDIFLFCKYIFYKFIYKCQNIINLFLEYKQIMLSHCINRVPYFIKVFSFSSLHILLKYSIRSFFKNYSFYKYIFTPNYKICFLCIHKNSYYSEIEKEDTSQICFDDVSTCQEINILGSEEYLRGLVTSSVGFIDNYDDKNRGNNFLEIFQKHMNIFDIKKDDVHFKINKYEQRIDIEKAFSHIKNNILQKYDERRREKKKDNDKLIRRVQNMYDDVENKIMSSLKKILDITNYDEEREKC,soluble
4,MSLEKLSHGLVTSRNMIRYKSSQLPERVLQFGEGNFLRGFIDWMIQQMNKQNVFNGRVVAIQPTPHGKVVPKLQEQDSLYTVWLRGIADGETVDHHEVITSISRGLNPYTNWQDVLEVAASPDISVVFSNTTEAGLTYLEEGYDKEKAPLSFPGKLAACLWHRYETLGWGEGSGLVIIPCELVEQNGKVLKELVCRYAKAWNFPQEFFTWLERENEFCHTLVDRIVPGFPSDTADECFERLGYEDILLTVAEPYHLFIIEGSERVRKLLPFNEAGLHVRWNHLEKHRNMKVRVLNGTHTFMFALSYLSGVDTVGEAMADEQLCSFIRKGLFEEIIPCVDAPEQEVTAFAETVLERFENPFLQHRLTDIGLNAVNKFRTRLMPTFNDYVAQTGEAPTYLLFSLAALINYYRGVEEDGPFLIGRRREDSYLIRDDLEVIEAFKVGWQQVNTGKLSLAQLCEDLLSKRELWGVDLSMERKVVDKVAESLQIIVEKGMRQAISGVLNQIGGNNHVHKEGHHHHHH,soluble
5,MSLIDIHNHILPNIDDGPTNETEMMDLLKQATTQGVTEIIVTSHHLHPRYTTPIEKVKSCLNHIESLEEVQALNLKFYYGQEIRITDQILNDIDRKVITGINDSRYLLIEFPSNEVPHYTDQLFFELQSKGFVPIIAHPERNKAISQNLDILYDLINKGALSQVTTASLAGISGKKIRKLAIQMIENNLTHFIGSDAHNTEIRPFLMKDLFNDKKLRDYYEDMNGFISNAKLVVDDKKIPKRMPQQDYKQKRWFGLEGHHHHHH,soluble
6,MAAIINQRVEQGESSMGGAKPALLHRITGHVARINDVILLSKDEGVWTASDDRSVRLYLKRDNDQFWPSIHHFMPVAPTSLYYSEETYKLLVGLINGNVYEFSVADDFNSMTESRKWTCHAGPISGLGFALSSELIFSCSRDKSIVWHCSENSNKMGSYLLENSCTAMVIDLPFVFVGDHGGHVTVLRIVDNQPNLVSKLSAHTNAITSLTWDGNKKVLYSGSSDHLIIMWDIGGGRGEAYELNGHNGKVTTLCAAPAAKRLFSADEHGKLMCWDMNCKRVETPEWKTSDCCQKCNQPFFWNLQAMWQRKVVGLRQHHCRTCGSAVCGSCCDNWTTYPPMGYETKIRICNDCNARMKDNPQNFNLTPLAIPHEIHTGITAMHLQETLGLLVTSGQNRVIMIWDVRSVCSAPSGSQ,not soluble
7,GMELKDIMHILEDMKVGVFATLDEYGNPHARHAHITAANEEGIFFMTSPETHFYDQLMGDQRVAMTAISEEGYLIQVVRVEGTARPVENDYLKTVFADNPYYQHIYKDESSDTMQVFQIYAGHGFYHSLTQGHKYIFSIGQGEHSEVRAL,soluble
8,MGSDKIHHHHHHMHMKLDDITYMNPWWEGKEDYHVKQWEKQKVHWEPKWIREISLKPFSLNFVLGPRQVGKTTGIKLLIQKILEENPPESVLYLNLEILPTYRELLDIIREFQELKKEEGIKTGYIFLDEASSLEGWWRGVKPLIDSGLLENDVITVTGSSSLRVRRDIELFPGRRGGGKTLEVMPLSFPEYARVMGLKKHKLEGSKVIKLFEKYIQTGGFPGSINGFPMEDLLGAYIGEFVRFGKSLEIAKEIFSALIRSAPSATSFRALAEMTSGYSYKVVQDYIEFFRDLYILGMAYLKQGNQVMYRREKKFFFRDPLLAKLFSLWSGTEIGKDALYEWIVQEHVFRKFGEIHYFRNSYEIDIIASDMKIEVKAGKAHRKYPRGVKVLEKEDVPFFLIELYNEDC,not soluble
9,MSLDHTYVFAVGGLDEVGKNSYAIEHNEETIMVDYGIKFASSDLLGINGIVANTSYFVENNRPIDALLLTHGHEDHIGGIPYLLQTTEVKKIYAPLLATELIKRRLSEFRDIKYNPEIIPFGDDSKVSTKYFEVDFFRVCHSIPDSFGMCIKTPNGRIVSAGDYRYDFGKDTDDTNIHKLVEMSNRGIDIFLSESTNSDQPGFSPSEDNIINNIETLIKNSKGRVFVATFASNLGRIEKIIERAIKSGRRVCIMGRSMEANIKTSKKLGYLKISESDFLTTKELNECKDREILVVLTGSQGEEMAALNQMALGKHPRLSLKPSDSIIMSSNPIPGNFKSVELLINRLYKQGVNMYTNSPNFRIHSSGHATIQELQMMFKILKPKYLIPIHGESKMLSAMKRNANSIGINPENVFVLTNGLKVELKDHNLKLTNQRIDACPIYIDKKVASKSTTDLINKRKLLSEEGIFNIIVLIDHKNKKVVKNPMLSTRGCFYAKDSSSLITKISFSVKDEIESLLNKEAEASKEKIKQAVANVVKFYVWKNKKKNPIVTTTVFDIEGHHHHHH,not soluble
10,MSNSDDEIQEIEAKRQKMSQEDSEVEIEILDEPEQGKLKNSSMSDEQKLHEFAIITATDEAFAQSILQDVDWDLKKALDVFYGSEAFAEARSAAVMGASSSMASSGAAVMTAEDLKGFEVSVMSWNIDGLDGRSLLTRMKAVAHIVKNVNPDILFLQEVVDRDLAPIDKLQSLYKIYYSNKGCQYYTAILVSKMFDVEKHDVIHFQNSGMYRTLQILEGSIGGLKVFLLNTHLESTREHRPQRCAQFGFCMDKVREIIAQNPGALVFFGGDLNLRDEEVSRVPDGVKDAWEAAGSDNKTKFTWDTFKNDNKQGFHGAKMRFDRLYWSGPLDKVKFTLEGRQRIRSCLCFPSDHWAINATFFA,not soluble
11,MNTPLQRPLADSTGLIENDAHALAVATALAQEFSIDAALRDRERQIPYSELDAVSRSGILGISIPLAFGGAEVNNVILAKVIAQIAQADGSLGQILQNHFHTLEALRVYGSRAQQQRIFAEVLAGALFGVAVDEQGTTNSQICTAVLAPSGEGYRISGRKFCATCAPYTRQILASAVDAQGARYMVFISLDALGLSIVDDGSCFGQRTVGGGSVMFDNVYVTSSDVVPFQVSLNDPNCVERHAQFMHAAVGTGIARAAYEDTLRFVREHARPWPEAAVDKARDDPLTIIEIGRLIIRLHAAEALLERAGAAVDLNRKAVCAENVALASMVVAAAQTLSTEVSLAAGSKLIELGGARATLSDYGLDRHWRNARVHTLYDPARWGPHQQGQQKLAPF,not soluble
12,MGSDKIHHHHHHMARTTDRQRNTRSPRQARRQLNKLLRDPIVKPHNAAAVRIRLDEMMAILQHREYRPEQPSSTNQVNTHGQVQFDLARWYPEGGRLRYTLRPRGALLPIAFTVQDFGNHRKSLTRGLALAVAGAAHQLDQMKAANKLPLIMQPFSDWVHLLAIGLQNWLENGQVVFSLADLNGAYVLTSMPTAPATWLARLFGISLGNPDQSLTDLRRQRQEQADRLTTRLAAKFAIEEAPLVQAANDRAAKSIQLDAATMATLASDQAPLRSQKDVVDRLARGDYIVIDTEFVADRNQLDLTEISLLRVRHHQVDGAFDIFTQLPEDHHVMPFSVKITGITDDLLSQYGQPLPLAKAAVEQLLKHELVVGFALSNDLRALRAGLNVDITPVQAFDVAALARKTFGIGKKHTPSLQHYKEALGVDLPSHTALSDAQTTMALLEHLIWEGSPLITKDIGFEQRPPEHANDPEPYQKPDPSTS,not soluble
